Measurements: paper PMC11077049, “Unearthing a novel function of SRSF1 in binding and unfolding of RNA G-quadruplexes”

How the values were obtained:
SRSF1 RS [1] = biological target: T1, SRSF1 RS (human, UniProt Q07955 199-248); assay: FP; 8-mer buffer, 35 mM K3PO4; FP, 10 nM RNA, 37 C 30 min then 25 C 10 min; 21-mers: 25 mM KCl, 0.25 M Arg/Glu, 20 mM Tris-HCl pH 7.5, 0.1 mM EDTA, 0.1 mM TCEP, 0.02% Tween 20; 8-mers: 35 mM; settings: protein: recombinant, tags: none (SUMO cleaved), label: 5' fluorescein
T1 chain: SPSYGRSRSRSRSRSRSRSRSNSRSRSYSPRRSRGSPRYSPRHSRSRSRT

SRSF1 RS [2] = biological target: T1, SRSF1 RS; assay: FP; FP, 10 nM RNA, 37 C 30 min then 25 C 10 min; 21-mers: 25 mM KCl, 0.25 M Arg/Glu, 20 mM Tris-HCl pH 7.5, 0.1 mM EDTA, 0.1 mM TCEP, 0.02% Tween 20; 8-mers: 35 mM; settings: protein: recombinant, tags: none (SUMO cleaved), label: 5' fluorescein
SRSF1 RRM tandem [3] = biological target: T2, SRSF1 RRM tandem (human, UniProt Q07955 1-196); assay: as above; settings: protein: recombinant, tags: none (SUMO cleaved), label: 5' fluorescein
SRSF1 full-length = SRSF1 full-length (human, UniProt Q07955 1-248); assay: as above; settings: protein: recombinant, tags: none (pSMT3 His-SUMO, Ulp1 cleaved), label: 5' fluorescein
SRSF1 RRM tandem [4] = biological target: T2, SRSF1 RRM tandem; assay: as above; settings: protein: recombinant; tags: none (SUMO cleaved); label: 5' fluorescein
SRSF1 RS [5] = biological target: T1, SRSF1 RS; assay: STD NMR; 0.5 mM RNA, 10 uM RS, D2O; no signal above noise; FP, 10 nM RNA, 37 C 30 min then 25 C 10 min; 21-mers: 25 mM KCl, 0.25 M Arg/Glu, 20 mM Tris-HCl pH 7.5, 0.1 mM EDTA, 0.1 mM TCEP, 0.02% Tween 20; 8-mers: 35 mM; settings: protein: recombinant; tags: none (SUMO cleaved)
RRM1/RRM2 linker = biological target: T3, RRM1/RRM2 linker (human, UniProt Q07955 92-120); assay: FP; FP, 10 nM RNA, 37 C 30 min then 25 C 10 min; 21-mers: 25 mM KCl, 0.25 M Arg/Glu, 20 mM Tris-HCl pH 7.5, 0.1 mM EDTA, 0.1 mM TCEP, 0.02% Tween 20; 8-mers: 35 mM; settings: protein: recombinant; label: 5' fluorescein; G-quadruplex (parallel)
T3 chain: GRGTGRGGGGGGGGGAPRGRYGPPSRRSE

RRM tandem Y19A = RRM tandem Y19A (human, UniProt Q07955 1-196, Y19A); assay: as above; settings: protein: recombinant; tags: SUMO; label: 5' fluorescein; G-quadruplex (parallel)
RRM tandem R173A = RRM tandem R173A (human, UniProt Q07955 1-196, R173A); assay: as above; settings: protein: recombinant; tags: SUMO; label: 5' fluorescein; G-quadruplex (parallel)
RRM tandem Q135A = RRM tandem Q135A (human, UniProt Q07955 1-196, Q135A); assay: as above; settings: protein: recombinant; tags: SUMO; label: 5' fluorescein; G-quadruplex (parallel)
RRM tandem WT (Table 3) = RRM tandem WT (Table 3) (human, UniProt Q07955 1-196); assay: as above; settings: protein: recombinant; tags: SUMO; label: 5' fluorescein; G-quadruplex (parallel)
RRM tandem W134A = RRM tandem W134A (human, UniProt Q07955 1-196, W134A); assay: as above; settings: protein: recombinant; tags: SUMO; label: 5' fluorescein; G-quadruplex (parallel)
RRM tandem F56A = RRM tandem F56A (human, UniProt Q07955 1-196, F56A); assay: as above; settings: protein: recombinant; tags: SUMO; label: 5' fluorescein; G-quadruplex (parallel)
RRM tandem F58A = RRM tandem F58A (human, UniProt Q07955 1-196, F58A); assay: as above; settings: protein: recombinant; tags: SUMO; label: 5' fluorescein; G-quadruplex (parallel)
RS mutant KS = RS mutant KS (human, UniProt Q07955 198-248, R198K;R204K;R206K;R208K;R210K;R212K;R214K;R216K;R218K;R222K;R224K;R229K;R230K;R2 …); assay: as above; settings: protein: recombinant; tags: none (SUMO cleaved); label: 5' fluorescein; G-quadruplex (parallel)
RS mutant RA = RS mutant RA (human, UniProt Q07955 198-248, S199A;S201A;S205A;S207A;S209A;S211A;S213A;S215A;S217A;S219A;S221A;S223A;S225A;S2 …); assay: FP; similar affinity to RS; FP, 10 nM RNA, 37 C 30 min then 25 C 10 min; 21-mers: 25 mM KCl, 0.25 M Arg/Glu, 20 mM Tris-HCl pH 7.5, 0.1 mM EDTA, 0.1 mM TCEP, 0.02% Tween 20; 8-mers: 35 mM; settings: protein: recombinant; tags: none (SUMO cleaved); label: 5' fluorescein; G-quadruplex (parallel)
SRSF1 RS [6] = biological target: T1, SRSF1 RS; assay: STD NMR; 0.5 mM RNA, 10 uM RS, D2O; strongest signal; FP, 10 nM RNA, 37 C 30 min then 25 C 10 min; 21-mers: 25 mM KCl, 0.25 M Arg/Glu, 20 mM Tris-HCl pH 7.5, 0.1 mM EDTA, 0.1 mM TCEP, 0.02% Tween 20; 8-mers: 35 mM; settings: protein: recombinant; tags: none (SUMO cleaved)

T2 sequence (Q07955 1-196): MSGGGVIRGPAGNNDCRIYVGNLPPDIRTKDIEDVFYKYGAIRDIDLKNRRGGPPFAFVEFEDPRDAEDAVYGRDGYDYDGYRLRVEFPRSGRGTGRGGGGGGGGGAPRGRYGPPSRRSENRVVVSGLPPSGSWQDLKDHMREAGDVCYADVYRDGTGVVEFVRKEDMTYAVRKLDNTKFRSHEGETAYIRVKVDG
Sequence of RRM tandem W134A (Q07955 1-196 W134A): as the sequence (Q07955 1-196) above, with W134A counted along it
Sequence of RRM tandem F58A (Q07955 1-196 F58A): as the sequence (Q07955 1-196) above, with F58A counted along it
Sequence of RRM tandem R173A (Q07955 1-196 R173A): as the sequence (Q07955 1-196) above, with R173A counted along it
Sequence of RRM tandem Q135A (Q07955 1-196 Q135A): as the sequence (Q07955 1-196) above, with Q135A counted along it
Sequence of RRM tandem Y19A (Q07955 1-196 Y19A): as the sequence (Q07955 1-196) above, with Y19A counted along it
Sequence of RRM tandem WT (Table 3) (Q07955 1-196): as the sequence (Q07955 1-196) above
Sequence of RRM tandem F56A (Q07955 1-196 F56A): as the sequence (Q07955 1-196) above, with F56A counted along it

B1: 8A (ssRNA)
RNA: AAAAAAAA
Question: Which Kd (SRSF1 RS [1]) does the source give for B1 here?
Answer: 610 ± 15 nM

B2: 21-mer GA (ssRNA)
RNA: GAGAGAGAGAGAGAGAGAGAG
Question: Which Kd (SRSF1 RS [2]) does the source give for B2 here?
Answer: 210 ± 16 nM

B3: TERRA GQ (structured_RNA)
RNA: UGGGUUAGGGUUAGGGUUAGGG
Question: Which Kd (SRSF1 RRM tandem [3]; G-quadruplex) does the source give for B3 here?
Answer: 3200 ± 290 nM

Question: And the Kd (SRSF1 RS [2]; G-quadruplex)?
Answer: 26 ± 2 nM

Question: And the Kd (SRSF1 full-length; G-quadruplex)?
Answer: 4.6 ± 0.5 nM

B4: GGG motif RNA (ssRNA)
RNA: UCAGAGGG
Question: Which binding signal (SRSF1 RRM tandem [4]) does the source give for B4 here?
Answer: ~3 fold weaker than GGA motif

B5: AAA 3-mer (ssRNA)
RNA: AAA
Question: Does B5 bind (SRSF1 RS [5])?
Answer: no binding

B6: 8U (ssRNA)
RNA: UUUUUUUU
Question: Which Kd (SRSF1 RS [1]) does the source give for B6 here?
Answer: 550 ± 21 nM

B7: ARPC2 GQ (structured_RNA)
RNA: GGGGGCUGGGCGGGGACCGGG
Question: Does B7 bind (RRM1/RRM2 linker)?
Answer: no binding

Question: What about the Kd (RRM tandem Y19A) of the same binder?
Answer: 1800 ± 160 nM

Question: What about the Kd (RRM tandem R173A) of the same binder?
Answer: 140 ± 12 nM

Question: And the Kd (RRM tandem Q135A)?
Answer: 350 ± 20 nM

Question: What about the Kd (SRSF1 RRM tandem [3]; G-quadruplex (parallel)) of the same binder?
Answer: 220 ± 19 nM

Question: And the Kd (SRSF1 RS [2]; G-quadruplex (parallel))?
Answer: 250 ± 22 nM

Question: And the Kd (RRM tandem WT (Table 3))?
Answer: 130 ± 11 nM

Question: What about the Kd (RRM tandem W134A) of the same binder?
Answer: 1200 ± 90 nM

Question: What about the Kd (RRM tandem F56A) of the same binder?
Answer: 7000 ± 1500 nM

Question: And the Kd (RRM tandem F58A)?
Answer: 1500 ± 80 nM

Question: Does B7 bind (RS mutant KS)?
Answer: no binding

Question: And the Kd (SRSF1 full-length; G-quadruplex (parallel))?
Answer: 3.6 ± 0.7 nM

Question: Does B7 bind (RS mutant RA)?
Answer: binds

B8: 4GA (ssRNA)
RNA: GAGAGAGA
Question: Which Kd (SRSF1 RS [1]) does the source give for B8 here?
Answer: 83 ± 3 nM

B9: 4CU (ssRNA)
RNA: CUCUCUCU
Question: With B9 as the binder, how does the Kd (SRSF1 RS [1]) read?
Answer: 470 ± 12 nM

B10: 21-mer CU (ssRNA)
RNA: CUCUCUCUCUCUCUCUCUCUC
Question: B10 was tested. Which Kd (SRSF1 RS [2]) did it give?
Answer: 1400 ± 100 nM

B11: UUU 3-mer (ssRNA)
RNA: UUU
Question: Does B11 bind (SRSF1 RS [5])?
Answer: no binding

B12: GGG 3-mer (ssRNA)
RNA: GGG
Question: Does B12 bind (SRSF1 RS [6])?
Answer: binds

B13: 8G (structured_RNA)
RNA: GGGGGGGG
Question: For B13, which Kd (SRSF1 RS [1]; intermolecular G-quadruplex) is on record?
Answer: 3 ± 0.8 nM

B14: MMP16 GQ (structured_RNA)
RNA: UUGGGAGGGAGGGAGAGGGUU
Question: Which Kd (SRSF1 RRM tandem [3]; G-quadruplex) does the source give for B14 here?
Answer: 3500 ± 490 nM

Question: What about the Kd (SRSF1 RS [2]; G-quadruplex) of the same binder?
Answer: 150 ± 10 nM

Question: And the Kd (SRSF1 full-length; G-quadruplex)?
Answer: 5.9 ± 0.6 nM
